{"source": "paper PMC3775092", "molecular_target": "KillerRed", "experiment": "SEC"}
{"substance": "KillerRed", "values": [{"measurement": "stoichiometry N", "value": 2}]}
